Measured values reported in US11110182B2, “Multifunctional RNA nanoparticles and methods for treating cancer and therapeutic resistant cancer” (University of Cincinnati, priority 2016, dated 2021).

What was measured:
MED1 = MED1 protein level by western blots in MCF-7/HER2 cells; assay type: cell-based, human; conditions: MCF-7/HER2, 10 μg/mL, 48 h
Experimental: FIGS. 10A-10D. Evidence that pRNA-HER2apt-siMED1 nanoparticles silenced MED1 expression and sensitized two other HER2+ breast cancer cells to tamoxifen treatment. FIG. 10A) Two HER2-overexpressing breast cancer cell lines MCF7/TAM and FIG. 10B) MCF7/HER2, were treated with 10 μg/mL pRNA-HER2apt-siMED1 nanoparticles or scramble control for 48 h, and then MED1 protein level was determined using western blots. FIG. 10C) MCF7/TAM and FIG. 10D) MCF7/HER2 cells were treated with 10 μg/mL pRNA nanoparticles and/or 1 μM tamoxifen (TAM) as indicated for 48 h, and then cell growth was determined using an MTT assay.
Next, the ability of pRNA-HER2apt-siMED1 nanoparticles to silence the expression of MED1 in BT474 and MDA-MB-231 human breast cancer cells was examined. Using real-time PCR analyses, a significant depletion of nearly 70% of MED1 mRNA in BT474 cells after pRNA-HER2apt-siMED1 but not pRNA-HER2apt^mut-siMED1 treatment was found (FIG. 3A).

[1] = Stability analyses (RNase A, 10% FBS DMEM, 8 M urea) by native PAGE; assay type: in vitro ADME; conditions: 37° C.
Description: FIG. 1A) The scheme of the pRNA-HER2apt-siMED1 (p-HER2-siMED1) (SEQ ID NO: 15) structure. FIG. 1B) The p1 and p2 strands of pRNA-HER2apt-siMED1_were transcribed using an in vitro RNA transcription system and separated in 8% denatured PAGE gel. FIG. 1C) pRNA-HER2apt-siMED1 nanoparticles were generated by annealing equal molar of strands p1 and p2, and subjected to 8% native PAGE gel electrophoresis. FIG. 1D) DLS assay of hydrodynamic size of pRNA-HER2apt-siMED1 nanoparticle. FIG. 1E) The Tm value of pRNA-HER2apt-siMED1 nanoparticle determined by TGGE assay. FIG. 1F) The atomic force microscopy (AFM) images of pRNA-HER2apt-siMED1 nanoparticles. FIG. 1G) The stability of control unmodified and 2′-F modified pRNA nanoparticles was examined by 8% native PAGE gel electrophoresis after RNase A, 10% FBS-supplemented DMEM medium and 8M urea treatments for the indicated time at 37° C.
Cell culture. Human breast cancer luciferase-overexpressing BT474 and MDA-MB-231 cells were maintained in DMEM medium (Hyclone, Thermo Scientific) supplemented with 10% fetal bovine serum (FBS, Sigma) and 1% penicillin/streptomycin (Corning) at 37° C. in a humidified atmosphere with 5% CO2.^53 • Generation of pRNA nanoparticles. The two strands of pRNA were synthesized with the DNA templates, which were amplified with overlapping primers (Sigma) by PCR methods, using a T7 promoter-controlled in vitro RNA transcription system as previously described^33 (Table 1). All the CTP and UTP used for synthesis of the pRNA nanoparticles were 2′-fluoro modified, except the control unmodified pRNA nanoparticles used in the stability assays. […] The hydrodynamic diameter and Tm value of pRNA nanoparticles were determined using dynamic light scattering and TGGE assay, respectively, as previously described.^54 The AFM imaging of the pRNA nanoparticles was performed at the University of Nebraska Medical Center imaging facility as previously reported.^55 Briefly, the pRNA nanoparticles (5 μL) were deposited on APS modified mica ^56 for a total of 2 min of incubation time. […]

B1: pRNA-HER2apt-siMED1: 3-WJ pRNA nanoparticle bearing a HER2-targeting RNA aptamer and two different MED1 siRNAs; strands p1 SEQ ID NO: 3, p2 SEQ ID NO: 4 (nucleic acid)
chain 1: GGACAGUGAAAGUGAGUCAAAGGAUCAAUCAUGGCCAAAGAUGUUACUUUGAGAGCCUU
chain 2: GGCUCUCAAAGUAACAUCUAAGGCCAUGUGUAUGUGGGGGGAGGACGAUGCGGUCUGCUGUGCUUGAUAUGCCCCAGACGACUCGCCCCCCACAUACUUUGUUGAUCCAAUGACUCACUUUCACUGUCCUU
modifications: 2'-F modification; third strand may lack entry; pRNA-HER2apt-siMED1, p1; pRNA-HER2apt-siMED1, p2
MED1 silencing (MED1): confirmed | resistance to RNase A treatment ([1]; 10 μg/mL RNase A): resistant | structure in 8M urea ([1]; 8M urea): maintained their structure | stability in 10% FBS-supplemented DMEM medium [1]: highly stable
